Patent publication US20170326229A1

Tests used:
Experiment in all cases: ELISA, gp120 on plate
[1] = molecular target: CH505 Env w136.B23 gp120 (HIV-1)
[2] = molecular target: CH505 Env w078.9 gp120 (HIV-1)
[3] = molecular target: CH505 Env w136.B5 gp120 (HIV-1)
[4] = molecular target: CH505 Env w100.B2 gp120 (HIV-1)
[5] = molecular target: CH505 Env w030.17 gp120 (HIV-1)
[6] = molecular target: CH505 Env w078.15 gp120 (HIV-1)
[7] = molecular target: CH505 Env w030.21 gp120 (HIV-1)
[8] = molecular target: CH505 Env w030.20 gp120 (HIV-1)
[9] = molecular target: CH505 Env w136.B10 gp120 (HIV-1)
[10] = molecular target: CH505 Env w160.T4 gp120 (HIV-1)
[11] = molecular target: CH505 Env w030.36 gp120 (HIV-1)
[12] = molecular target: CH505 Env w053.22 gp120 (HIV-1)
[13] = molecular target: CH505 Env w078.33 gp120 (HIV-1)
[14] = molecular target: CH505 Env w100.A13 gp120 (HIV-1)
[15] = molecular target: CH505 Env w078.6 gp120 (HIV-1)
[16] = molecular target: CH505 Env w053.15 gp120 (HIV-1)
[17] = molecular target: CH505 Env w004.54 gp120 (HIV-1)
[18] = molecular target: CH505 Env w053.31 gp120 (HIV-1)
[19] = molecular target: CH505 Env w078.17 gp120 (HIV-1)
[20] = molecular target: CH505 Env w100.B4 gp120 (HIV-1)
[21] = molecular target: CH505 Env w020.11 gp120 (HIV-1)
[22] = molecular target: CH505 Env w030.13 gp120 (HIV-1)
[23] = molecular target: CH505 Env w020.25 gp120 (HIV-1)
[24] = molecular target: CH505 Env w136.B2 gp120 (HIV-1)
[25] = molecular target: CH505 Env w020.15 gp120 (HIV-1)
[26] = molecular target: CH505 Env w053.29 gp120 (HIV-1)
[27] = molecular target: CH505 transmitted/founder (TF) Env gp120 (HIV-1)

Substance	log-transformed AUC [1]	log-transformed AUC [2]	log-transformed AUC [3]	log-transformed AUC [4]	log-transformed AUC [5]	log-transformed AUC [6]	log-transformed AUC [7]	log-transformed AUC [8]	log-transformed AUC [9]	log-transformed AUC [10]	log-transformed AUC [11]	log-transformed AUC [12]	log-transformed AUC [13]	log-transformed AUC [14]	log-transformed AUC [17]	log-transformed AUC [21]	log-transformed AUC [22]	log-transformed AUC [23]	log-transformed AUC [25]	log-transformed AUC [27]	other results
CH103 CD4 binding site broadly neutralizing antibody	11.8 log AUC	8.9 log AUC	4.3 log AUC	3.2 log AUC	9.9 log AUC	10.7 log AUC	12.2 log AUC	9.5 log AUC	11.5 log AUC	9 log AUC	9.1 log AUC	11.6 log AUC	11.1 log AUC	12.9 log AUC	9.2 log AUC	9.6 log AUC	12.9 log AUC	10.3 log AUC	11.8 log AUC	12.6 log AUC	log-transformed AUC [15]: 9.9 log AUC; log-transformed AUC [16]: 11.2 log AUC; log-transformed AUC [18]: 13.6 log AUC; log-transformed AUC [19]: 11.3 log AUC; log-transformed AUC [20]: 9.7 log AUC; log-transformed AUC [24]: 10.8 log AUC; log-transformed AUC [26]: 10.2 log AUC
CH103 lineage intermediate ancestor IA1 (antibody)	14.4 log AUC	6.3 log AUC	9.5 log AUC	7.3 log AUC	5.8 log AUC	10.9 log AUC	11.8 log AUC	5.7 log AUC	9.2 log AUC	13.6 log AUC	6.7 log AUC	8.8 log AUC	8.2 log AUC	12.6 log AUC	6.2 log AUC	1.8 log AUC	10.5 log AUC	8.6 log AUC	9.9 log AUC	10.4 log AUC	log-transformed AUC [15]: 3 log AUC; log-transformed AUC [16]: 9.2 log AUC; log-transformed AUC [18]: 13.4 log AUC; log-transformed AUC [19]: 9 log AUC; log-transformed AUC [20]: 13.7 log AUC; log-transformed AUC [24]: 13.2 log AUC; log-transformed AUC [26]: 8.8 log AUC
CH103 lineage intermediate ancestor IA2 (antibody)	14.3 log AUC	7.2 log AUC	9.9 log AUC	7.5 log AUC	7 log AUC	11.5 log AUC	11.5 log AUC	6.3 log AUC	9.7 log AUC	13.4 log AUC	7.3 log AUC	9.3 log AUC	9 log AUC	12.5 log AUC	6.8 log AUC	2.6 log AUC	11.4 log AUC	9 log AUC	10.5 log AUC	10.8 log AUC	log-transformed AUC [15]: 4.6 log AUC; log-transformed AUC [16]: 9.5 log AUC; log-transformed AUC [18]: 13.3 log AUC; log-transformed AUC [19]: 9.9 log AUC; log-transformed AUC [20]: 13.4 log AUC; log-transformed AUC [24]: 13.1 log AUC; log-transformed AUC [26]: 9.2 log AUC
CH103 lineage intermediate ancestor IA3 (antibody)	–	–	–	–	–	3 log AUC	–	–	–	–	–	1.1 log AUC	–	–	5.1 log AUC	0.8 log AUC	9 log AUC	8.6 log AUC	10.2 log AUC	11 log AUC	–
CH103 lineage intermediate ancestor IA4 (antibody)	–	–	–	–	–	1.3 log AUC	–	–	–	–	–	0.2 log AUC	–	–	2.8 log AUC	0.8 log AUC	7.4 log AUC	7.3 log AUC	9.1 log AUC	10.1 log AUC	–
CH103 lineage intermediate ancestor IA6 (antibody)	–	–	–	–	–	1 log AUC	–	–	–	–	–	–	–	–	2.9 log AUC	0.8 log AUC	6.5 log AUC	6 log AUC	7.8 log AUC	9.1 log AUC	–
CH103 lineage intermediate ancestor IA7 (antibody)	–	–	–	–	–	0.7 log AUC	–	–	–	–	–	–	–	–	2.3 log AUC	0.1 log AUC	4.7 log AUC	6.4 log AUC	8.2 log AUC	9.2 log AUC	–
CH103 lineage intermediate ancestor IA8 (antibody)	–	–	–	–	–	–	–	–	–	–	–	–	–	–	0.5 log AUC	0.9 log AUC	2 log AUC	2.4 log AUC	4.2 log AUC	5.5 log AUC	–
CH103 lineage unmutated common ancestor (UCA) (antibody)	–	–	–	–	–	–	–	–	–	–	–	–	–	–	–	–	0.3 log AUC	0.8 log AUC	1.6 log AUC	3.5 log AUC	–
CH104 (CH103 lineage monoclonal antibody)	14.2 log AUC	6.9 log AUC	10.6 log AUC	6.1 log AUC	7 log AUC	10.8 log AUC	11.3 log AUC	7.5 log AUC	8.9 log AUC	12.8 log AUC	7.8 log AUC	9.9 log AUC	9 log AUC	12.9 log AUC	8.1 log AUC	2.2 log AUC	11.3 log AUC	8.3 log AUC	10.5 log AUC	10.4 log AUC	log-transformed AUC [15]: 4.5 log AUC; log-transformed AUC [16]: 10.4 log AUC; log-transformed AUC [18]: 13.7 log AUC; log-transformed AUC [19]: 10 log AUC; log-transformed AUC [20]: 13.1 log AUC; log-transformed AUC [24]: 13.2 log AUC; log-transformed AUC [26]: 9.8 log AUC
CH105 (CH103 lineage monoclonal antibody)	13.7 log AUC	6.6 log AUC	10.5 log AUC	7.5 log AUC	6.7 log AUC	10.1 log AUC	10.6 log AUC	7.1 log AUC	8.5 log AUC	12.2 log AUC	7.5 log AUC	9 log AUC	8.9 log AUC	11.4 log AUC	8.3 log AUC	3.6 log AUC	10.5 log AUC	8.2 log AUC	10.8 log AUC	11.2 log AUC	log-transformed AUC [15]: 3.8 log AUC; log-transformed AUC [16]: 9.4 log AUC; log-transformed AUC [18]: 13.5 log AUC; log-transformed AUC [19]: 9.5 log AUC; log-transformed AUC [20]: 11.9 log AUC; log-transformed AUC [24]: 12.4 log AUC; log-transformed AUC [26]: 8.5 log AUC
CH106 (CH103 lineage monoclonal antibody)	13.3 log AUC	8.3 log AUC	10.9 log AUC	7.8 log AUC	8.2 log AUC	11 log AUC	10.9 log AUC	7.3 log AUC	9 log AUC	12.3 log AUC	8.5 log AUC	9.8 log AUC	9.5 log AUC	12 log AUC	8.1 log AUC	5.4 log AUC	11.9 log AUC	9.4 log AUC	10.5 log AUC	11.3 log AUC	log-transformed AUC [15]: 6.7 log AUC; log-transformed AUC [16]: 10.1 log AUC; log-transformed AUC [18]: 13.4 log AUC; log-transformed AUC [19]: 8.7 log AUC; log-transformed AUC [20]: 12.6 log AUC; log-transformed AUC [24]: 12.7 log AUC; log-transformed AUC [26]: 9.7 log AUC
